# Measured values taken from article PMC10470539, “Characterization of a novel aromatic substrate-processing microcompartment in Actinobacteria” (mBio, 2023).
# B1: ARO dioxygenase (2-aminophenol-1,6-dioxygenase; ARO AmnA and AmnB) (Micromonospora rosaria) (protein)
# chain: MSRVFRVPLAPTRGGATTAPRTPAPAPAPTRPGIVAGCLSPHPPHLIYGENPPQNEPRSTGGWETLRWAYERLRARIRDVHKPDVLIVHAPHWITMVGHHVNCVPNPRGLSVEPIFPHLFRYRYDFRTDVELGEAIAEEASGLGLVTRTLRDPRVRVDYATIGALHLANPAWDIPVVSLSANNNPYFYSDASLTEMEVLGEATRLAVEATGRRAVLLASNSLSHLHWHEEPELPEDMEREHPYNNHQYRWDMKLLEAIRRGPTAPLRDLIPEHIEATASETKAGSLTWMLAAMGWPKVAGDVLGYGTIIGTGNAIVEWLPEGSHH
# notes: E. coli BL21(DE3) co-expression (codon-optimized; pLD54 alpha, pLD59 beta); beta with C-terminal 6xHis via Gly/Ser linker, tag kept; alpha untagged; 140 kDa dimer of heterodimers; modelled alpha D3-H278, beta T30-G322; iron in beta subunit; primers imply alpha N-term MADRTG, beta N-term MSRVFR; with 2-aminophenol 1,6-dioxygenase alpha subunit
# Key:
# [1] = molecular target: T1, ARO AldDh (2-aminomuconic-6-semialdehyde dehydrogenase homolog) (Micromonospora rosaria, UniProt A0A136PUC7); test: coupled assay, absorption spectra, product 2-aminomuconate at […] nm; format: biochemical; details: 2-AMS generated in situ from 0.5 µM 2-AP by ARO dioxygenase; 20 µM NAD+, 100 mM potassium phosphate pH 7.5
# T1 construct: gene AWW66_10300; E. coli BL21(DE3), codon-optimized, untagged (pLD69); ammonium sulfate and HIC enriched; primers imply N-term MTGLWSPTL, C-term VDLS
# T1 sequence (A0A136PUC7 1-502): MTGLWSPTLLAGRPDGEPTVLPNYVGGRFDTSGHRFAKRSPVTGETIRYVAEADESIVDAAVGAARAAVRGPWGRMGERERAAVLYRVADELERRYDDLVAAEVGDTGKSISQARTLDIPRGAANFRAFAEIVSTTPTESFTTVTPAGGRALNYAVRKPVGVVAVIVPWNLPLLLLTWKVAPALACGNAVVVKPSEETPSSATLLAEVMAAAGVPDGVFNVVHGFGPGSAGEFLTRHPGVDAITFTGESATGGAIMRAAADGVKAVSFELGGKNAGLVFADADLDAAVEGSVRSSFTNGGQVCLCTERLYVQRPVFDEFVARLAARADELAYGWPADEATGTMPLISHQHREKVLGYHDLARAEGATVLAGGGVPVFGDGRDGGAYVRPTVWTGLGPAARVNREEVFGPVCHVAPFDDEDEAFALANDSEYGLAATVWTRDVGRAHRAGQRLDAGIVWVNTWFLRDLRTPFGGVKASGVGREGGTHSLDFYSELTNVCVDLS
# [2] = molecular target: ARO AldDh (ARO 2-aminomuconic-6-semialdehyde dehydrogenase homolog) from Micromonospora rosaria (Micromonospora rosaria); test: SEC; purified ARO AldDh on analytical Superdex 200 10/300 GL in Buffer E (10 mM Tris-HCl pH 8.0, 0.5 M NaCl, 0.2 mM NAD+, 1 mM DTT, 5% glycerol); oligomer of the enzyme with itself
# [3] = molecular target: ARO dioxygenase beta subunit (2-aminophenol-1,6-dioxygenase beta subunit) from Micromonospora rosaria, His-tagged (Micromonospora rosaria); test: crystal structure; ARO dioxygenase, sitting drop vapor diffusion at room temperature; 0.1 M Tris pH 8.0, 0.5 M ammonium, 28% PEG 8000; 1.75 Å, P1 cell
# purified protein [4] = substrate: Nc1ccc(Cl)cc1O; test: purified protein; format: biochemical, Micromonospora rosaria; details: 10 mM sodium phosphate pH 8.0, room temperature, 27 µg enzyme in 1 mL
# purified protein [5] = substrate: Nc1ccccc1O; test: purified protein; format: biochemical, Micromonospora rosaria; details: 10 mM sodium phosphate pH 8.0, room temperature, 27 µg enzyme in 1 mL
# purified protein [6] = substrate: Oc1ccccc1O; test: purified protein; format: biochemical, Micromonospora rosaria; details: 10 mM sodium phosphate pH 8.0, room temperature, 27 µg enzyme in 1 mL
molecule,measurement,setting,value
N/C(=C\C=C\C=O)C(=O)O [2-aminomuconate 6-semialdeyde],"coupled assay, absorption spectra, product 2-aminomuconate at 326 nm",[1],ability to convert 2-aminomuconate 6-semialdeyde (2-AMS) to 2-aminomuconate in vitro
ARO AldDh (ARO 2-aminomuconic-6-semialdehyde dehydrogenase homolog) from Micromonospora rosaria (enzyme),stoichiometry N,[2],3
"ARO dioxygenase beta subunit (2-aminophenol-1,6-dioxygenase beta subunit) from Micromonospora rosaria, His-tagged (natural protein)",stoichiometry N,[3],2
B1,Km,purified protein [4],29 µM
same,Km,purified protein [5],70 µM
same,Km,purified protein [6],14 µM
